Numbering of substitutions follows the chain as printed. Numbers in names are those of the source.

Sequences and labels used below:
B1: A08M variant of SEQ ID NO: 1 (designed binder)
chain: GSPDEYIERMKECCKKGDIQCCLRYFEESGDPNVMLICLFCP
B2: K09N variant of SEQ ID NO: 1 (designed binder)
chain: B1 chain with M10A, K11N
B3: Y04N variant of SEQ ID NO: 1 (designed binder)
chain: B1 chain with Y6N, M10A
B4: E10M variant of SEQ ID NO: 1 (designed binder)
chain: B1 chain with M10A, E12M
B5: A08N variant of SEQ ID NO: 1 (designed binder)
chain: B1 chain with M10N
B6: E03N variant of SEQ ID NO: 1 (designed binder)
chain: B1 chain with E5N, M10A
B7: R07Q variant of SEQ ID NO: 1 (designed binder)
chain: B1 chain with R9Q, M10A
B8: A08Q variant of SEQ ID NO: 1 (designed binder)
chain: B1 chain with M10Q
B9: D02Q variant of SEQ ID NO: 1 (designed binder)
chain: B1 chain with D4Q, M10A
B10: K09M variant of SEQ ID NO: 1 (designed binder)
chain: B1 chain with M10A, K11M
B11: E10N variant of SEQ ID NO: 1 (designed binder)
chain: B1 chain with M10A, E12N
B12: D02N variant of SEQ ID NO: 1 (designed binder)
chain: B1 chain with D4N, M10A
B13: I05Q variant of SEQ ID NO: 1 (designed binder)
chain: B1 chain with I7Q, M10A
B14: E06N variant of SEQ ID NO: 1 (designed binder)
chain: B1 chain with E8N, M10A
B15: K09Q variant of SEQ ID NO: 1 (designed binder)
chain: B1 chain with M10A, K11Q
B16: Y04Q variant of SEQ ID NO: 1 (designed binder)
chain: B1 chain with Y6Q, M10A
B17: E03Q variant of SEQ ID NO: 1 (designed binder)
chain: B1 chain with E5Q, M10A
B18: I05N variant of SEQ ID NO: 1 (designed binder)
chain: B1 chain with I7N, M10A
B19: P01Q variant of SEQ ID NO: 1 (designed binder)
chain: B1 chain with P3Q, M10A
B20: P01N variant of SEQ ID NO: 1 (designed binder)
chain: B1 chain with P3N, M10A
B21: R07N variant of SEQ ID NO: 1 (designed binder)
chain: B1 chain with R9N, M10A
B22: E10Q variant of SEQ ID NO: 1 (designed binder)
chain: B1 chain with M10A, E12Q
B23: E06Q variant of SEQ ID NO: 1 (designed binder)
chain: B1 chain with E8Q, M10A

For the experiment, the target named is biotinylated His-Avi-TEAD (194-411) (UniProt P28347). Put plainly: SSM screen, enrichment after two rounds of sorting.
On to B1, for which the enrichment score was -10.1. The result for B2 reads 3.31; that for B3, 0.04. In the case of B4, the enrichment score was -0.34.

The molecule B5 gave an enrichment score of -9.2. B6: the enrichment score was 0.58. Molecule B7 showed an enrichment score of -0.48. In turn, B8 returned an enrichment score of -6. On to B9, for which the enrichment score was -0.2.

B10 came in with an enrichment score of -3.56. With B11, the enrichment score was -0.45. The result for B12 reads -0.16. Molecule B13 gave an enrichment score of -1.23.

In the case of B14, the enrichment score was -0.82.

In the case of B15, the enrichment score came to 1.1. B16 had an enrichment score of 0.29. B17 showed an enrichment score of -1.35. As for B18, the enrichment score was -1.34. B19: the enrichment score was -0.84. Molecule B20 yielded an enrichment score of -0.49. In turn, B21 came in with an enrichment score of 0.34.

In turn, B22 had an enrichment score of -1.94. The molecule B23 returned an enrichment score of -2.41.

For the origin of these results see US20230151068A1.
